# Experimental data: patent US20100009860A1, “Device and method for analysis of interactions between biomolecules” (priority 2004, published 2010)
# Ends that are not written are not given here.
# How the values were obtained:
# FKBP12 [1] = molecular target: T1, FKBP12 (Mus musculus, UniProt P26883); assay: Mapping of FKBP12 binding sites by classical SPOT-technology and protein interaction analysis; conditions: SPOT peptide scan of FAP48 / cytosolic domain of EGF-receptor
# Source text: In a first step, the FKBP12-binding sites in the FAP48 were mapped using classical SPOT-technology and protein interaction analysis.
# In a first step, the FKBP12 binding sites in the cytosolic domain of the EGF-receptor (EGFR) were mapped by classical SPOT-technology and protein interaction analysis. […] Then, peptide pairs were synthesized at the MG12, as described in example 2, whereby the constant peptide block Ac-PHVCRLLGICLTS was synthesized at the Dde-side. At the Fmoc-side, overlapping 13 mer peptides were synthesized spanning the entwire FKBP12-sequence with a 2-aminoacid shift. In each case 48 individual spots resulted therefrom.
# streptavidine [2] = molecular target: streptavidine (Streptomyces avidinii, UniProt P22629); assay: Streptavidine/strep-tag II interaction using inhibition with biotine (Western blot, immunodetection); type: binding; conditions: 60 μg streptavidine/6 μg biotine, 1 h pre-incubation
# Chain of streptavidine (Streptomyces avidinii, UniProt P22629) (P22629 25-183): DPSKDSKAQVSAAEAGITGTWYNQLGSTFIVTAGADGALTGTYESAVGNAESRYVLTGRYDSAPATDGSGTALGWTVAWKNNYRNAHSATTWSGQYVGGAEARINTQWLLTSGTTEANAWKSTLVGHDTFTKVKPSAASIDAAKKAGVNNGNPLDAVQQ
# Protocol: The cellulose, which was modified with peptide pairs corresponding to the embodiment shown in FIG. 7 by molecular forks MG1, was analyzed using the previously formed biotine/streptavidine-complex (60 μg streptavidine/6 μg biotine, 1 h pre-incubation) followed by Western Blot-analysis and immunodetection. A) Only just one side on the MG1 was attached to oligopeptides of the streptavidine-scans. The other side was modified by an acetylation reaction. B) Only just one side on the MG1 was attached to oligopeptides of the streptavidine-scan, and the strep-tag II-peptide was synthesized on the other side.
# As described in example 2, peptide pairs were synthesized at the MG2, whereby the constant peptide block strep-tag II was synthesized at the Dde-side. At the Fmoc-side, overlapping 12 mer peptides were synthesized spanning the entire streptavidine-sequence with a 2-aminoacid shift. 60 μg streptavidine were pre-incubated using 6 μg biotine in the MP-buffer (30 mM tris-HCl, pH 7.6, 170 mM NaCl, 6.4 mM KCl, 0.05% Tween 20, 5% sucrose) for 60 min and it was subsequently incubated overnight at 4° C. while shaking with the cellulose. […]
# A densitometric analysis of the intensities of each spot was performed by a GS-700 imaging densitometer (Bio-Rad) for quantifying the signals (FIG. 12).
# [3] = test system: streptavidine-peptide/strep-tag II interaction; assay: Inhibition of streptavidine-peptide/strep-tag II interactions on MG3 peptide-pair array, fluorescence read-out; type: binding; conditions: membrane incubated 30 min with agent (0.5 mM biotine) before analysis; excitation 366 nm, emission 510-530 nm
# Protocol: The reading of the signal by fluorescence and the inhibition of the streptavidine-peptide/strep-tag II-interactions using the natural product biotine and their derivatives are shown.
# A) The chemical structure of the exemplary molecular fork MG3.
# The peptide being at the side of Fmoc was marked with a danysl-radical and the peptide being at the Aloc-side was marked with fluoresceine. The analysis was performed by detection of the light emission at 510-530 nm after excitation with light of a wave length of 366 nm using the Raytest DIANA chemiluminescence detection system. […]
# Peptide pairs were synthesized at MG3 (FIG. 17A), whereby the constant peptide block strep-tag II was synthesized at the Aloc-side and marked with a fluoresceine radical. […] Differences in fluorescence properties of the spots were obtained with different peptide pairs, an enhanced fluorescence emission was detected for interacting peptide pairs.
# For the inhibition of interaction of the peptide pairs, the modified membrane was treated with high-affinated, low-affine and non-affine agents with similar chemical properties before the analysis. […] Subsequently, the analysis of the fluorescence properties of the spots was carried out.
# FKBP12 [4] = molecular target: T1, FKBP12; assay: Mapping of interaction region with peptide pairs on molecular fork MG2, FKBP12 as detection molecule; type: binding; conditions: 200 nM FKBP12, overlapping 13 mer FKBP12 peptides, 2-amino acid shift, cellulose
# Protocol: A) The cellulose modified with peptide pairs by molecular forks MG2 was analyzed using 200 nM FKBP12 followed by Western Blot-analysis and immunodetection. The constant peptide block acetyl-KCPLLTAQFFEQS of FAP (Lys217-Ser229) was synthesized at the Dde-side. At the Fmoc-side, overlapping 13 mer peptides were synthesized spanning the entire FKBP12-sequence with a 2-amino acid shift. The densitometric analysis was performed using a GS-700 imaging densitometer (Bio-Rad). The ordinate represents the difference from the inverse value of the intensity of each spot and the inverse value of the average spot intensities. Large positive values correspond to a weak signal in the blot and show potential interactions within the peptide pair.
# (§1) B) The cellulose modified with peptide pairs by molecular forks MG2 was analyzed using 200 nM FKBP12 followed by the Western Blot-analysis and immunodetection. […] The ordinate represents the difference from the inverse value of the intensity of each analyzed spot and the inverse value of the average spot intensities. […]
# as §1, with “The” for “B) The”, “intensity.” for “intensities.”
# streptavidine [5] = conditions: cited from earlier work
# T1 sequence (P26883 whole entry, the tested form may be a part): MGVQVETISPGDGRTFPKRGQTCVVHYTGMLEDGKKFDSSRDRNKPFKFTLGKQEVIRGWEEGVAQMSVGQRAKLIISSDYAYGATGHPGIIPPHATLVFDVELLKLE
compound,measurement,setting,value
LSPLYLLQFNMGH (Ac-LSPLYLLQFNMGH; not fully specified),interaction to FKBP12,FKBP12 [1],mediate an interaction to FKBP12
O=C(O)CCCC[C@@H]1SC[C@@H]2NC(=O)N[C@@H]21 [biotine],bond of the streptavidine on the strep-tag II-peptide,streptavidine [2],blocked
same,fluorescence emission of the spots (inhibition of peptide pair interaction),[3],decreased
acetyl-PHVCRLLGICLTS (Ac-PHVCRLLGICLTS; cysteine pairing not given here),interaction region in FKBP12,FKBP12 [4],Met21-Ser67
PHVCRLLGICLTS (Ac-PHVCRLLGICLTS; cysteine pairing not given here),interaction to FKBP12,FKBP12 [1],particularly strong interacting
N[C@@H]1[C@H](CCCCC(=O)O)SC[C@@H]1N [diaminobiotine],fluorescence emission of the spots (inhibition of peptide pair interaction),[3],very similar to the original fluorescence behaviour without a pharmaceutical agent
KCPLLTAQFFEQS (Ac-KCPLLTAQFFEQS; not fully specified),interaction to FKBP12,FKBP12 [1],mediate an interaction to FKBP12
N=C1N[C@H]2[C@H](CS[C@H]2CCCCC(=O)O)N1 [2-iminobiotine],Ka,streptavidine [5],8e+06 M⁻¹
